Patent publication US10000771B2, “Nuclear targeting sequences” (Yeda Research and Development Co. Ltd., priority 2007, dated 2018)

Tests used:
COS7 cells [1] = test: Subcellular fractionation of GFP-ERK2 constructs; assay type: cell-based; conditions: 48 hr after transfection, serum-starved
Description: FIG. 6 is an autoradiograph illustrating the subcellular fractionation of WT-GFP-ERK2 (WT), APA-GFP-ERK2 (APA), or EPE-GFP-ERK2 (EPE). COS7 cells were grown in 10 cm plates and transfected with the above ERK2 constructs. Twenty-four hr after transfection the cells were serum-starved for 16 hr and subjected to cellular fractionation as described under materials and Methods. Western blot analysis of aliquots of the fractions were stained with anti GFP Ab to detect the ERK2 and its mutant, and with anti tubulin and anti c-Jun Abs as markers for the cytoplasmic and nuclear fractions respectively.
Cellular Fractionation: Transfected COS7 cells were starved (0.1% FBS) for 16 h, after which they were washed with ice-cold PBS, suspended in ice-cold buffer H, and centrifuged (12,000×g, 5 min). Then, the nuclear and cytosolic fractions were isolated as described [H. Rubinfeld, T. Hanoch, R. Seger, J. Biol. Chem. 274, 30349 (1999)]. Briefly, the pellets were suspended in 0.1% NP-40 followed by centrifugation (12,000×g, 5 min). The supernatant, containing the cytosolic fraction, was boiled in sample buffer. The pellet was suspended in extraction buffer (420 mM Nacl, 50 mM β-glycerophosphate, 0.5 mM Na3VO4, 1.5 mM MgCl2, 0.2 mM EDTA, 1 mM DTT, 25% glycerol), incubate on ice for 10 min, sonicated (50 W, 2×7 sec), and centrifuged (12,000×g, 5 min). […]

CHO cells = test: Fluorescence microscopy of ERK2 constructs (subcellular localization); assay type: cell-based
Description: FIGS. 1A-1R are photomicrographs illustrating the role of SPS in the non-regulated accumulation of ERK2 in the nucleus. CHO (FIGS. 1A-F and 1M-R) or COS7 cells (FIGS. 1G-L) were grown on cover slips and transfected with WT-ERK2, or the mutants 244-6A and Δ244-6. Twenty-four hr following transfection, the cells were serum-starved (16 hr), fixed, stained with DAPI and visualized using a fluorescent microscope.
FIGS. 2A-2X are photomicrographs illustrating the role of SPS in the stimulated nuclear translocation of ERK2. CHO cells were grown on cover slips and co-transfected with HA-MEK1 together with either WT-ERK2, 244-6A, or Δ244-6. Twenty-four hr after transfection, the cells were serum starved for 16 hours, treated with TPA (250 nM, 15 min), except in WT-10 where the cells were treated with 10 nM TPA for 15 min. After treatments the cells were fixed and stained with either anti-HA Ab or DAPI.
FIGS. 5A-5F are photomicrographs illustrating that mutating the Ser residues in the SPS to Glu induces the nuclear accumulation of ERK2. CHO cells were grown on cover slips and transfected with WT-GFP-ERK2 (WT), APA-GFP-ERK2 (APA), or EPE-GFP-ERK2 (EPE). Twenty-four hr after transfection, the cells were serum-starved, fixed, stained with DAPI and visualized by a fluorescent microscope.
FIGS. 7A-7H are photomicrographs illustrating that EPE-ERKs translocates to the nucleus faster than WT-ERK. CHO cells were transfected with WT-GFP-ERK2 (WT) and EPE-GFP-ERK2 (EPE). Eight (FIGS. 7A-D) or twelve (FIGS. 7E-H) hours after transfection the cells were fixed, stained with DAPI and visualized by a fluorescent microscope.
Immunofluorescence Microscopy. Cells were fixed (30 min in 3% paraformaldehyde in PBS or 10 min with ice-cold methanol), followed by 5-min permeabilization with 0.2% Triton X-100 in PBS (23° C.). The fixed cells were sequentially incubated with the appropriate Abs (45 min) followed by rhodamine-conjugated secondary Abs (45 min) and DAPI. Slides were visualized using a fluorescence microscope (Nikon, Japan) at 400× magnifications. […]

importin-7 = target: T1, importin-7 (Homo sapiens, UniProt O95373); test: Coimmunoprecipitation with importin-7; assay type: binding; conditions: HeLa cells, coimmunoprecipitation with anti GFP Ab, with or without stimulation
T1 construct: endogenous in cells; host or cells: HeLa
T1 sequence (O95373 whole entry): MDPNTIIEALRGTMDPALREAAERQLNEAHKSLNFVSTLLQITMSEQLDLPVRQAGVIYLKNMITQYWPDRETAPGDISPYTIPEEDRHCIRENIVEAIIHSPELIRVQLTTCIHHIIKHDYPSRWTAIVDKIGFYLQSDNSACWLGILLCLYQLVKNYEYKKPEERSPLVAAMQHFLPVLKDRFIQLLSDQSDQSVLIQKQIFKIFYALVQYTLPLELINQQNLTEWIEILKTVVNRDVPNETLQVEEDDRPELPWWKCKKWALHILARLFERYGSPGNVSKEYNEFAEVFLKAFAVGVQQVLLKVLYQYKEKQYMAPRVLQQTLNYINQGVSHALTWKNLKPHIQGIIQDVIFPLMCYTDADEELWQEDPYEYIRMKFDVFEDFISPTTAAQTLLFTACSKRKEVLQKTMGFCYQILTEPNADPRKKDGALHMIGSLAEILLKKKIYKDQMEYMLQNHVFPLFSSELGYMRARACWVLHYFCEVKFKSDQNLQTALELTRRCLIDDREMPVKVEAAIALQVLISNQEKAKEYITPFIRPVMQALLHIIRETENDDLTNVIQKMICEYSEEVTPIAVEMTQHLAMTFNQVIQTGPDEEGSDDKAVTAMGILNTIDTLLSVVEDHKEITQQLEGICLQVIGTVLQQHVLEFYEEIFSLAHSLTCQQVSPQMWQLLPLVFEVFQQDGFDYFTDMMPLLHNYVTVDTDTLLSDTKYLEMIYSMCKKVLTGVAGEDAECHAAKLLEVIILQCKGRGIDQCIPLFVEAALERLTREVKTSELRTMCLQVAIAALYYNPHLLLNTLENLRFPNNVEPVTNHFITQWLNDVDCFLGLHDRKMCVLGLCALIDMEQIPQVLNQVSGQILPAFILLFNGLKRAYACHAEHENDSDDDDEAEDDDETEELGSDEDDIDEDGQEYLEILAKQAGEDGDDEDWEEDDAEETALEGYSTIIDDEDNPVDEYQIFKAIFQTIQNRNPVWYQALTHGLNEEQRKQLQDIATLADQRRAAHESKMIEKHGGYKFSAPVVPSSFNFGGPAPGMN
Description: (§1) FIGS. 19A-19C are autoradiographs illustrating that phospho-SPS interacts with importin-7 and releases Nup153c binding without involvment of importin-β. […]. Interaction of ERK2 with Importin-7 is enhanced by EGF stimulation and EPE mutation. HeLa cells overexpressing WT-ERK (WT), ERK-APA (APA), ERK-EPE (EPE) or GFP were serum starved and treated with EGF (50 ng/ml, 10 min). The extracts of the treated cells were then subjected to coimmunoprecipitation using A/G beads pre-conjugated with anti GFP Ab and mild washes. The coimmunoprecipitated importin-7 (first panel) and importin-β (third panel), as well as their loading amounts (panels 2 and 4 respectively) were determined by WB using anti importin-7 (αImp7) and importin-β (αImpβ) Abs. The equal amount of immunoprecipitated ERKs was determined with anti GFP (αGFP; IP) Ab. FIG. 19B. Interaction of 2GFP-SPS and its mutants with importin-7. HeLa cells overexpressing 2GFP, 2GFP-SPS, 2GFP-APA and 2GFP-EPE constructs were subjected to coimmunoprecipitation as described in FIG. 19A (without EGF stimulation). FIG. 19C. Interaction of NUP153 with WTERK2 and its APA and EPE mutants. NUP153c is elevated in APA-ERK2, but reduced in EPE-ERK2. Immunoprecipitated and stringently washed WT-ERK2 (WT), APA-ERK2 (APA) or ERK2 from […] cells pre-treated with or without TPA (250 nM, 15 min) were incubated with 0.5 μg recombinant His-Nup153c. […]

Nup153c = test: Interaction with recombinant His-Nup153c; assay type: binding; conditions: immunoprecipitated ERK2 incubated with 0.5 μg recombinant His-Nup153c
Description: as §1

COS7 cells [2] = test: Proliferation assay of COS7 cells overexpressing ERK2 constructs; assay type: cell-based; conditions: 72 hours after transfection
Description: FIG. 16 is a bar graph illustrating that the prevention of SPS phosphorylation inhibits proliferation. COS7 cells overexpressing WT-ERK2, 244-6A-ERK2, ▴244-6-ERK2, APA-ERK2 or EPE-ERK2 were subjected to proliferation assay 72 hours after transfection. The bar graph represent the mean+/−SD (n=3), Student t test was used for statistical analysis (*, p<0.01).

B1: EPE-ERK2: GFP-ERK2 with the two Ser residues of the SPS domain replaced with Glu (phosphomimetic) (protein)
chain: MAAAAAAGPEMVRGQVFDVGPRYTNLSYIGEGAYGMVCSAYDNLNKVRVAIKKISPFEHQTYCQRTLREIKILLRFRHENIIGINDIIRAPTIEQMKDVYIVQDLMETDLYKLLKTQHLSNDHICYFLYQILRGLKYIHSANVLHRDLKPSNLLLNTTCDLKICDFGLARVADPDHDHTGFLTEYVATRWYRAPEIMLNSKGYTKSIDIWSVGCILAEMLSNRPIFPGKHYLDQLNHILGILGEPEQEDLNCIINLKARNYLLSLPHKNKVPWNRLFPNADSKALDLLDKMLTFNPHKRIEVEQALAHPYLEQYYDPSDEPIAEAPFKFDMELDDLPKEKLKELIFEETARFQPGYRS
modifications: left off: large carriers
COS7 cells [1]
  localized in the nucleus: ~95%
CHO cells; CHO cells, shortly (8 or 12 hours) after transfection
  speed of translocation into the nucleus: faster than WT-ERK2
CHO cells; overexpressed in CHO (and COS7) cells, serum-starved, fluorescent microscope
  subcellular localization in quiescent cells: pronounced nuclear localization
importin-7
  interaction of ERK2 constructs with importin-7: dramatically increased the interaction
Nup153c
  interaction with Nup153: reduced
COS7 cells [2]
  serum-induced cell proliferation: slightly enhanced
